The assay addresses T1, CGRP receptor on rat CNS1 glioma cells (rat, UniProt Q63118 24-464; Q9JJ74 27-148).
T1 construct: whole, on cells; Endogenous receptor; also called CGRP receptors of CNS1 glioma cells
Kind of assay: fluorescence microscopy, 30 nM FL-CGRP on CNS1 cells. Here is the method: FIG. 13 is a panel of microscopy images illustrating that FL-CGRP binds to CNS1 glioma cells. CNS1 cells were incubated with 30 nM FL-CGRP for 30 minutes, and imaged using phase-contrast microscopy (right, upper and lower panels) and fluorescent microscopy for FL-CGRP (left, upper and lower panels).

No end group written: not given here. Alexa488 = Alexa488 dye (single fluorescent dye molecule)

T1 sequence (Q63118 24-464, chain 1 of 2): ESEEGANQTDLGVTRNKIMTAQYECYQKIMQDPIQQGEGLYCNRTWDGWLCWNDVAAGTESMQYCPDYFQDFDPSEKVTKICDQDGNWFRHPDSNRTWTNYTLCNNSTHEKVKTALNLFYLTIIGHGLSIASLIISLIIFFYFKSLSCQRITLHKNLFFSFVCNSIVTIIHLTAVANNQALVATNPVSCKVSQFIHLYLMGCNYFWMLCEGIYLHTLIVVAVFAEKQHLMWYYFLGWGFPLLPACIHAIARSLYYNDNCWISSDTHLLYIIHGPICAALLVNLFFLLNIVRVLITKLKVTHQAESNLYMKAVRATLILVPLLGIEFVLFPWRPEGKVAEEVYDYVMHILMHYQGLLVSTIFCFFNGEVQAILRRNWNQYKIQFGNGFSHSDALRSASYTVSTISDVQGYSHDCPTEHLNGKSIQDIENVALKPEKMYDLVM
T1 sequence (Q9JJ74 27-148, chain 2 of 2): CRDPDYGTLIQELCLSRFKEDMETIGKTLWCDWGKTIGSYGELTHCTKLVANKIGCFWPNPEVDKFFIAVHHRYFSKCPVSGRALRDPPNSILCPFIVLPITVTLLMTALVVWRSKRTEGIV

B1: fluorescently-labeled CGRP (FL-CGRP): rat CGRP with a single Alexa488 dye on lysine 24 (peptide, UniProt P01256 83-119, looked up)
peptide: SCNTATCVTHRLAGLLSRSGGVVK(Alexa488)DNFVPTNVGSEAF
modifications: ends and bridges not checked
notes: mature; the peptide itself is the mature 37-mer; also called single-labeled FL-CGRP
Turning to B1, the binding result was “binds”.

(Values after patent publication US20110189205A1 (UNIVERSITY OF ROCHESTER, published 2011).)
